Columns and labels:
ZR-75-1 cells [1] = experiment: Complement-dependent cytotoxicity (CDC) assay; type: cell-based; details: 5% human or rabbit serum
Method: (§1) To further test the inherent activity of naked muDS6, a complement-dependent cytotoxicity (CDC) assay using muDS6 was conducted. HPAC and ZR-75-1 cells (25000 cells/well) were plated in 96 well plates, in the presence of 5% human or rabbit serum and various dilutions of muDS6, in 200 μl of RHBP media (RPMI-1640, 0.1% BSA, 20 mM HEPES (pH 7.2-7.4), 100 U/ml penicillin and 100 ug/ml streptomycin). The cells were incubated for 2 h at 37° C. Then Alamar Blue (10% of final concentration) reagent (Biosource) was added to the supernatant. The cells were incubated for 5-24 hrs before measuring fluorescence.

HPAC cells [2] = experiment: Complement-dependent cytotoxicity (CDC) assay; type: cell-based; details: 5% human or rabbit serum
Method: as §1

OVCAR-3 cells = experiment: Flow cytometry binding assay; design: species or system human; details: OVCAR3
Method: (§2) Flow cytometric analysis was used to localize the DS6 epitope, CA6, to the cell surface. Human cell lines were obtained from the American Type Culture Collection (ATCC) with the exception of OVCAR5 (Kearse et al., Int. J. Cancer 88(6):866-872 (2000)), OVCAR8 and IGROV1 cells (M. Seiden, Massachusetts General Hospital). All cells were grown in RPMI 1640 supplemented with 4 mM L-glutamine, 50 U/ml penicillin, 50 μg/ml streptomycin (Cambrex Bio Science, Rockland, Me.) and 10% v/v fetal bovine serum (Atlas Biologicals, Fort Collins, Colo.), referred hereafter as culture media. Cells were maintained in a 37° C., 5% CO2 humidified incubator.
(§3) Cells ([…]) were incubated, on ice for 3-4 h, with serially diluted concentrations of the DS6 antibody prepared in FACS buffer (2% goat serum, RPMI) into 96-well plates. The cells were spun down in a table top centrifuge at 1500 rpm for 5 min at 4° C. After removing the media, the wells were then refilled with 150 μl of FACS buffer. The wash step was then repeated. FITC-labeled goat anti-mouse IgG (Jackson Immunoresearch) was diluted 1:100 to FACS buffer and incubated with the cells for 1 h on ice. The plate was covered in foil to prevent photobleaching of the signal. After two washes, the cells were fixed with 1% formaldehyde and analyzed on a flow cytometer.

MDA-MB-157 cells = experiment: Flow cytometry binding assay; design: species or system human
Method: as §2, §3

BT-483 cells = experiment: Flow cytometry binding assay; design: species or system human
Method: as §2, §3

SW1990 cells = experiment: Flow cytometry binding assay; design: species or system human
Method: as §2, §3

BxPC-3 cells = experiment: Flow cytometry binding assay; design: species or system human
Method: as §2, §3

MDA-MB-468 cells = experiment: Flow cytometry binding assay; design: species or system human
Method: as §2, §3

BT-549 cells = experiment: Flow cytometry binding assay; design: species or system human
Method: as §2, §3

BT-20 cells = experiment: Flow cytometry binding assay; design: species or system human
Method: as §2, §3

ZR-75-1 cells [3] = experiment: Flow cytometry binding assay; design: species or system human
Method: as §2, §3

WISH cells = experiment: Flow cytometry binding assay; design: species or system human
Method: as §2, §3

HPAF-II cells = experiment: Flow cytometry binding assay; design: species or system human
Method: as §2, §3

KLE cells = experiment: Flow cytometry binding assay; design: species or system human
Method: as §2, §3

Caov-4 cells = experiment: Flow cytometry binding assay; design: species or system human
Method: as §2, §3

OVCAR5 cells = experiment: Flow cytometry binding assay; design: species or system human
Method: as §2, §3

SU.86.86 cells = experiment: Flow cytometry binding assay; design: species or system human
Method: as §2, §3

Hs766T cells = experiment: Flow cytometry binding assay; design: species or system human
Method: as §2, §3

Colo205 cells = experiment: Flow cytometry binding assay; design: species or system human; details: Colo205, antigen negative cell line
Method: as §2, §3

T98G cells = experiment: Flow cytometry binding assay; design: species or system human
Method: as §2, §3

SK-OV-3 cells = experiment: Flow cytometry binding assay; design: species or system human
Method: as §2, §3

MCF-7 cells = experiment: Flow cytometry binding assay; design: species or system human
Method: as §2, §3

HPAC cells [4] = experiment: Flow cytometry binding assay; design: species or system human
Method: as §2, §3

CAMA-1 cells = experiment: Flow cytometry binding assay; design: species or system human
Method: as §2, §3

PC-3 cells = experiment: Flow cytometry binding assay; design: species or system human
Method: as §2, §3

TOV-21G cells = experiment: Flow cytometry binding assay; design: species or system human
Method: as §2, §3

T-47D cells = experiment: Flow cytometry binding assay; design: species or system human
Method: as §2, §3

MDA-MB-231 cells = experiment: Flow cytometry binding assay; design: species or system human
Method: as §2, §3

HeLa cells = experiment: Flow cytometry binding assay; design: species or system human; details: HeLa
Method: Cells were maintained in a 37° C., 5% CO2 humidified incubator.
as §3

B1: DS6: murine anti-CA6 monoclonal antibody DS6 (ATCC deposit number PTA-4449) (antibody, V domains shown)
VH: QAYLQQSGAELVRSGASVKMSCKASGYTFTSYNMHWVKQTPGQGLEWIGYIYPGNGATNYNQKFKGKATLTADPSSSTAYMQISSLTSEDSAVYFCARGDSVPFAYWGQGTLVTVSA
VL: QIVLTQSPAIMSASPGEKVTITCSAHSSVSFMHWFQQKPGTSPKLWIYSTSSLASGVPARFGGSGSGTSYSLTISRMEAEDAATYYCQQRSSFPLTFGAGTKLELKR
With B1 the CDC mediated effect (ZR-75-1 cells [1]; listed as Murine DS6) was “no effect”, the CDC mediated effect (ZR-75-1 cells [1]; listed as muDS6) was “no CDC mediated effect” and the CDC mediated effect (HPAC cells [2]; listed as Murine DS6) was “no effect”. For the same molecule, the CDC mediated effect (HPAC cells [2]; listed as muDS6) was “no CDC mediated effect”, the “MMF (maximum mean relative fluorescence)” value (OVCAR-3 cells) was 21.19 and the “MMF (average maximum relative mean fluorescence)” value (MDA-MB-157 cells) was 8.635. The “MMF (average maximum relative mean fluorescence)” value (BT-483 cells) was 1911.00, the “MMF (average maximum relative mean fluorescence)” value (SW1990 cells) was 36.17 and the “MMF (average maximum relative mean fluorescence)” value (BxPC-3 cells) was 79.99. The “MMF (average maximum relative mean fluorescence)” value (MDA-MB-468 cells) was 71.58, the “MMF (average maximum relative mean fluorescence)” value (BT-549 cells) was 71.39 and the “MMF (average maximum relative mean fluorescence)” value (BT-20 cells) was 232.20. For the same molecule, the “MMF (average maximum relative mean fluorescence)” value (ZR-75-1 cells [3]) was 811.67, the “MMF (average maximum relative mean fluorescence)” value (WISH cells) was 1133.55 and the “MMF (average maximum relative mean fluorescence)” value (HPAF-II cells) was 266.50. The “MMF (maximum mean relative fluorescence)” value (KLE cells) was 27.48, the “MMF (average maximum relative mean fluorescence)” value (Caov-4 cells) was 149.00 and the “MMF (average maximum relative mean fluorescence)” value (OVCAR5 cells) was 97.10. For the same molecule, the “MMF (average maximum relative mean fluorescence)” value (SU.86.86 cells) was 36.86, the “MMF (average maximum relative mean fluorescence)” value (Hs766T cells) was 182.90 and the antigen specific binding (Colo205 cells) was “no antigen specific binding”. For the same molecule, the “MMF (average maximum relative mean fluorescence)” value (T98G cells) was 35.94, the Kd (T98G cells; read-out: Apparent Kd) was 0.178 nM and the antigen specific binding (SK-OV-3 cells; SK-OV-3, antigen negative cell line) was “no antigen specific binding”. For the same molecule, the “MMF (maximum mean relative fluorescence)” value (SK-OV-3 cells; SKOV3) was 17.53, the “MMF (average maximum relative mean fluorescence)” value (MCF-7 cells) was 81.41 and the “MMF (average maximum relative mean fluorescence)” value (HPAC cells [4]) was 2228.00. The “MMF (average maximum relative mean fluorescence)” value (CAMA-1 cells) was 12.46, the “MMF (average maximum relative mean fluorescence)” value (PC-3 cells) was 24.81 and the “MMF (average maximum relative mean fluorescence)” value (TOV-21G cells) was 87.79. For the same molecule, the “MMF (average maximum relative mean fluorescence)” value (T-47D cells) was 559.58, the “MMF (average maximum relative mean fluorescence)” value (MDA-MB-231 cells) was 31.85 and the “MMF (average maximum relative mean fluorescence)” value (HeLa cells) was 242.50.
